Measurements reported in a protein production outcome set (Wang et al. 2014).

Assay: label from the status in PepcDB records

In the case of “MKRKIIVACGGAVATSTMAAEEIKELCQSHNIPVELIQCRVNEIETYMDGVHLICTTARVDRSFGDIPLVHGMPFVSGVGIEALQNKILTILQG”, the protein production is reported as “not failed”.

With “MKRKKLSIFILSAAIVTSSVSYGMTAKADEVKETKGYNYNVNLSEQKAVANNKISVKKVNGEILGYANPFTMLQILNMNGKTVEVITQSGLRGYVDANEFTLVESAVNDKLIEKNIEGHVTNVSTVLNLRKEPRIGAEIINRLLNNTKVNILGKQGSWYKIELNGQKGYVYGMFLNEGTMKENSSKTIANKKSEVKSKDKKEKKSSVKKEAKKEVVSGVKAKVVQKQREEAKANMTSEAKPAINKDAKSNNKVEVKSEVKKEAKNEVKTEMNSSTKVETSQVVTSEMVQAVNTEVKSEKNQEANLQVRPEIKSEEKTEMISKENLNVIPEAKKEGISEEIKPEVNTEVESKPEMNKEVKAEEGKTAPEVKLEEKQEVKPVEASEEKVEVKKEEVQDPKAKEMDELLKSEEYKFLRMSISYGERLVDRNDVYTKDSLKILRTELEKAKKVFQDKDNLTMKLVQDTRDDLERAIVDLVKISDVKKPVKSKAKVEVKKESNTEKKQEVKEQPAKAEVIVPEVKENKEIKKEEPVKAKEVVKEKKSREEEIEEILKSEEYRFLLKDIAYGERLSEKITVYTRDSLKVLNAAIEKAGRIVRQKEKLTVKLVQDTRDDVDRAIVDLVKKNN” the protein production was “failed”.

For “MKRKWIDALWVMGVLLMAGFCLSACNRELDVQTVFPFEVSTMPVPKQIKQGETVEVRCSLVSEGDFSGTCYTMRFFQTEGKGVLRIGRGVALKPNDCYPVGKGDFRLYYTSQSKERQSLEIVFEDNHGQSQTIVLDFNHKESDEDKEREAGYRT”, the protein production was “failed”.

With “MKRLADVKISTLDLVPVRHDKGPAESLRNSLSLAQHVEKLGYNRFWVAEHHNMDGIASSATSVLLAYLAGGTSTIRVGAGGIMLPNHAPLVVAEQFGTLASLYPDRIDLGLGRAPGSDQMTARALRRERSGSAEDFPDDVTELMEYLGPRTPDQKVIAVPGSGTNVPIWLLGSSLFSAQLAGMRGLPYAFASHFAPRYMHEAIRVYRNHFQPSAVLDKPYVMLGVPLSAADTDEQAEYLATSVYQRILALMRGHSLMQRPPVDSMDGLWLPHEREAVASFLGLAMVGGPEKIRAKLDVLLEQTDADELIFTCDMYEHEDRLRSYEILAQ” the protein production was “failed”.

For “MKRLDLVAGPNGAGKSTFVALTLAPLLPGIVFVNADEIAKQRWPDDPTSHAYQAAQVAADTRARLIDLGRPFIAETVFSHPSKLELIRTARTAGYTVVLHVLVIPEGLAVERVRHRVAAGGHDVPETKIRERHRRLAELVAQAITLADGATVYDNSRLAGPRIVAQFSGGGIIGRACWPSWTPPPLMSRWSNRPETA”, the protein production was “failed”.

In the case of “MKRLFLPLLGFLSLVLMCCNDNKESGTDSYDPNKPVTIDYFTPDTGRVAEKVIIIGNNFGNDKSAVTVLFTDNMEKENKAAVVGVDNTTIYCMAPRQAEGFNKITVKVNDQTVVADETFKYSVSENVSTIAGDFVQADGAGKDGSLAEATFGQMFGVACIDEQSGIVGQAWNNNSVRYISIDEDAVITIQSGPVVGKVAVSNDKTLAYGATINGANTVYVYKKSQAWVPSRLSDISSGTDVWAVALNGDNQWLYYVTANGRLGRIEVDNPTHNEILFEHNDFSGGPFAYIAYSAFEDCFYVTTDKNKILKVWVKEDGTHAYEQINQNNTGTTDGFLADEAKFQYLRGLTIDEDGNIFVCQGDNSHVIRKIAYDENMEKRYVTTVLGTSTVHGTDDGSPDIALFNGPQDISYDGNGGYWIAMRYEPALRKYSIE”, the protein production is reported as “failed”.

In the case of “MKRLIVSSSVVLFMFLCSITITSAENNSVKVAFIRHHNLWIKVDGKEIQITKGEYITGPKWSYDGEWLAYVKGKKQSILELYRLKDGKKVTPFHSEASNYQWSPTENIIAFIFTGTLNTFDVEKKNADFENVSAGVGDYAWYPDGKNFLVSSEAHLLPTGWTGAQLYEVQKDAHMNPHKMKHLYALPNEHDDFLALVASGFKWSPDQKWISFLAVPTASWSADSNTLCLVRADGSRFEKVDQMLLNAQWFQWAPSKNILAYIEGSGRVALENKHLKVKELPALQQNIFTPKGYVDWDFVWKNDRVIIVSRAKEAGIETPPEKRPLPSLYEVDSTSNAQHQITKKTNKQGDYHPIFMKKSNQLIWIRSDRKKADVWLAHKDRKQEKKWIENIDVPAWYYEKWNWGNVISVKEE”, the protein production is reported as “failed”.

In the case of “MKRMHNPAHPGEVLREYLGELTVTNAAAKLGVSRVALSRILNGTNGISADMALRLEDALGTSAEMWAAMQFKYDLWVASQQPRPKITRLHV”, the protein production is reported as “failed”.

In the case of “MKRPHGYQITSLRADKYGGYYAANFVGNEILYFDVNNNVNALVKDGFSYLKSPYDVIEANNLLYVTLYSSDEIGVYDKVLGVKRKSIGNKGTKDGELLAPQYMAIDKRNYIYVSEWGNKRVSKFGLEGDFILHFGSRTSGYKGLLGPTGVTYLNENIYVADSLRNTIEVFDTSGNHLYSVFTSIEGIEGLSSDFVGNNVIVSSKDGVYKYSIAKKTITKILKADKMNSKISSSILDANNQMIVSDFNNAKVSVYKSDASLYDSLEHHHHHH”, the protein production is reported as “not failed”.

With “MKRQYYIGISLFITIIILVLDQITKFIIASSMKVGDSFEVIPNFLNITSHRNDGAAWGILSGKMSFFFIITIIILVVLIVFYIKEAKNNLLMQIAISLLFAGALGNFIDRVLHGEVVDFVDTYIFGYNFPIFNVADSSLTIGVLLIIIALLTDMKKEE” the protein production was “failed”.

With “MKRRLLCALLASTLAQPLTVRADLPDLGEISDASLSLSDEARIGRDALRAMREAGDVVDDPEVNAYLNDVGGRLAAAAAVPGVRFTYFCVADAGINAFAMPGGYVGINIGLMLASQSEGELAAVLGHETAHVAQRHIARMQAANSAASPLLLLGTIVAAALAAKAGSGDGAMGAVSAGMGLSISRQLAFSRDFEREADRVGMQYMSAAGFDVRNMAAFFQRLEQASRYSDNTAYAFLRTHPVTLERISEAQNRALDYPVRMRADSVDYLLVREKLRVLTLSPEEAVSHYSSALQRGLYLNEGANWYGLARAKLLQHDRAGASEALAKARAKLPDNPMLYGLEVEIARDGRDWAAAARAARNGLSAFPRSVSLQLAQLDVALDGGDRKAAQAQLRQLLDSRRDDPALYRREAKLYADKDPLRYHAALGNAFYYEQRYGAALEQYQLAGKAKGDDFYLRSMLEARLREVEKLAKEERKAARNLEHHHHHH” the protein production was “not failed”.

For “MKRSIAPLLVCPACLPKERPLELTATAEADGDITAGHLSCKGCRRRFPIRDGIAVLLPDPDTGPSGGQWKYEEQGTLATYLWSHFADLAGDPEAGDAYASWASALAGNAETSLDAGCAVGRLTFELGQRSGLAVGFDLSLTFIRAARQLARERQIRFSLPREGNLRDEFRLTLPDCWRTDEVEFVVADALAIPFARETFDRTASLNLIDRVSYPLAHLYEMNRVARLSGASFLLSDPFSWSTANAPEEKWLGGTESGPYSGRGMDNVKAILGGKEAIIAPPWTVAREGSVWWKIRSHRNHFELIRSEFLVAERLEHHHHHH”, the protein production was “failed”.

For “MKRSLLACAMSCMMLTVSAHSDFDVRNVDSQFHVPEIGGGVGLIDQQKERQIGEKVFREIQKQMPVVHDPWLQEQYSQIFLRVLAQTSITQPVGLVIIKDPQINAFAVPGGLFALNTGLIANARNIDEVAGVMAHEVAHVTQRHYSRSQEAFKGQGLLALAGILVGAAVATTSNADVGSAVMLGTQAALMDRQLTYSRNQEREADRIGMQYMYAAGYNPQSMADFFETMQRSRVGSSFMPDFWMTHPLTTERMSEARLRANQLPKVETKLYDPNFQLLKWYTLAVSDPSSEKILENVVKQGNKEAQLALGAYYVGQGDFVKAQKQLDDIKSQFNENTLYCLIQTNIYLGQNELDQAYSSIVNIQRAMPESRALAYKLAEVMILQGKAGDTLQLIQPFVNRNPRDLEGWQLMQQASSIDRISPVQTVNTLRYRAEVQFWSGNEENAIKSLLHAQRLAKGNESLSARIDSRLKQMQSDYTMKI”, the protein production was “failed”.

With “MKRVFVFQDFKSQKFWSIDVRGTDVIVNYGKLGTDGQTQVKNFSSAGEAEKAAGKLIAEKTKKGYVETLEEVAKEMKVEAKKYALSYDEAEEGVNLMDKILKDKKLPSLKQITIGCWGYEGEDCSDIADGIVENKEKFAHFEGLFWGDIDFEEQEISWIEQVDLSPVLDAMPLLNNLKIKGTNNLSIGKKPRPNLKSLEIISGGLPDSVVEDILGSDLPNLEKLVLYVGVEDYGFDGDMNVFRPLFSKDRFPNLKWLGIVDAEEQNVVVEMFLESDILPQLETMDISAGVLTDEGARLLLDHVDKIKHLKFINMKYNYLSDEMKKELQKSLPMKIDVSDSQEYDDDYSYPMITELEHHHHHH” the protein production was “not failed”.

With “MKRVNQNLYQLLRRIYWRLPLPEETKELLVGFARRFLRGMKKALAEPVTTASSASVSREKILQEYANQILAIPRKSGNEYVEISSSSYQRKEGDAKILAYYLPQFHPTKENDMWWGKGVTEWNNVSRAMPQYVGHYQPRLPGELGYYDLRILDNMRRQVELAQMYGIYGFCFYYYWFDGKRLLDKPLDMFLEAKTIDFPFSLCWANESWTRRFDGSCGEILVKQSETVESYIAFINSVVPYMRDSRYIRMNGKPIFTIYRPSFIPECASTITAWREHCVKAGIGDIYIIGIKEHTWDVNLIELGFDAQSEFHPGTLFKHCVDISSQINYMQDFGGIVLDYRDIVEHKKYFLYNHPKLHRAAMPMWDNSARRDNKGMIFEGASPDLYERWLTDILLEAKNREDLEDHYIFINAWNEWGEGAYLEPDKKYGYAYLNATRQAIEGVRS” the protein production was “failed”.

For “MKRYIYLFVSVFTLVMASCQQEETSNGKTGFLQFSVEKNTSTILVPATRAEELPIALQVVDRAGTVVKETDDWHNWTSTPLELPLGSYTINAFSKGVDVGTAGFDEPYYWGQSEVTVVPKVNQSVNIECRLANVKVTVNYSADVKKYFSKLNCSVGNSSGKLVFGKDETRSGYFAVDKLNISLALTNTDGRSFVFESEPITDVKERQHYRINYTMKANGAIGGVSVTLDPSTKEYNVNIAIPKESNPSVNVWSDFADVTLPLPDGVVTKECKYRISGTEDWNTVSNVEQADGKLVATITGLIPGTEYDFCFAINGVNGKITTATTELQKQLENGSFDEWNQNGKTWFPGTAAEASAKNSYWDTGNVGAATMSKNPSIGESNDVHTVGGKSAKLSSQFVGMFGIGKFAAGNIYIGRYMETYTSPMGARIRFGREFTSRPTQLKGWYKYTRGTSIDRGDHNVEELKNSGGDKCAIYIALTDNEGLVDDNGVKTAYEVNNNKEGSPTRYTVDLSEANKDVIAYGSITDEESKGSFDESGNVVWKQFTIDLKYRDLTRKPKYIIVVASASKYGDFFTGSESSVMLIDDFELVYGTPVTAN”, the protein production was “failed”.

For “MKRYPRDMRGHGPTPPDAAWPGGARIAVSIVLNYEEGGENCLLHGDAQSEAFLSDIAGAQPWPGQRHWNMESIYDYGARAGFWRLHRLFTGLNIPVTVYGVATALARSPEQVAAMKSAGWEIASHGLKWVEHRDMPEEEERRQIAEAIRLHAEVVGERPRGWYTGRCSVNTVRLTAEEGGFDWISDTYDDDQPYWLETGTRDQLVIPYTLEANDMRFATAPGYIEGEQFFTYLRDSFDTLYAEGCAGQAKMFSIGLHCRLIGRPGKIAGLKRFLDYARTHERVWFPCRGDIARHWHETHPHRRRPRPSRMDRESFVAHFGGIYEHSPWIAERAFELELGPAHDSPAGLANALARIFRSATPAERLSVLKAHPDLAGKLAQARRLTASSSFEQSSAGLDALTDAERAEFATLNADYVAKHGFPFIIAVRDHDKAGILAAFETRLAHDSATEFATACRQVERIAELRLQDMLKLEHHHHHH”, the protein production was “failed”.
